Laboratory results reported in patent US9873883B2, “Glyphosate resistant plants and associated methods” (Dow AgroSciences LLC, priority 2012, dated 2018).

test system: C=C(OP(=O)(O)O)C(=O)O; assay: purified protein, by the assay type; details: other: pH 7.5, 1 mM S3P

| Molecule | Km [µM] | kcat/Km [M⁻¹ s⁻¹] |
| --- | --- | --- |
| Mariprofundus ferrooxydans EPSP synthase DGT-14 v1, native wild type (GENBANK ZP_01452683; SEQ ID NO:17) (Mariprofundus ferrooxydans PV-1) | 208.6 | – |
| bacterial EPSP synthase DGT-30 (GENBANK ZP_02156189.1) variant DGT-30 v6 (G→A at residue 96), SEQ ID NO:13 (Shewanella benthica KT99; G96A) | 414.9 | 30000 |
| bacterial EPSP synthase DGT-11 v6, native (GENBANK YP_989551.1), SEQ ID NO:5 (Bartonella bacilliformis INS) | 1576.6 | 50 |
| bacterial EPSP synthase DGT-29 (GENBANK YP_322772.1) variant DGT-29 v6 (G→A at residue 96), SEQ ID NO:11 (Trichormus variabilis ATCC 29413; G96A) | 1502.2 | 4000 |
| bacterial EPSP synthase DGT-18 (GENBANK NP_928909.1) variant DGT-18 v6 (G→A at residue 96), SEQ ID NO:9 (Photorhabdus laumondii subsp. laumondii TTO1; G96A) | 375.9 | 40000 |

substrate: C=C(OP(=O)(O)O)C(=O)O; assay: In vitro kinetic assay (inorganic phosphate production, malachite green); type: biochemical, Glycine max; details: other: pH 7.5, 1 mM S3P
Text: (§1) The following Class I enzymes: DGT-1 from Glycine max, DGT-3 from Brassica napus (GENBANK ACC NO: P17688), and DGT-7 from Triticum aestivum (GENBANK ACC NO: EU977181) were used as a comparison. The Class I EPSP synthase enzymes and mutant variants thereof were synthesized and evaluated. A mutation introduced into the plant EPSP synthase enzymes consisted of the Glycine to Alanine mutation made within the EPSP synthase enzyme at a similar location as that of the G96A mutation from the E. coli version of the enzyme. In addition, Threonine to Isoleucine and Proline to Serine mutations were introduced within these Class I EPSP synthase enzymes at analogous positions as that of amino acid 97 (T to I) and amino acid 101 (P to S) in the EPSP synthase of E. coli as described in Funke et al., (2009).
(§2) The location of the amino acid residue which was mutated from glycine to alanine is indicated by the first asterisk. The location of the amino acid residue which was mutated from threonine to isoleucine is indicated by the second asterisk. The location of the third amino acid residue which was mutated from proline to serine is indicated by the third asterisk. These mutations were introduced into different versions of DGT-1, DGT-3, and DGT-7. The different versions of the genes which contain the mutations are described in more detail below.
(§3) Additional constructs containing the dgt-1, dgt-3 and dgt-7 were synthesized. These constructs were used for in vitro testing of the dgt-1 v5, dgt-1 v6, dgt-1 v7, dgt-1 v8, dgt-3 v6, dgt-3 v7, dgt-3 v8, dgt-7 v5, dgt-7 v6, dgt-7 v7, and dgt-7 v8 gene sequences were outsourced to GeneArt for synthesis and cloning. The synthesized genes were cloned into the pET28 expression vector. The resulting constructions were labeled as pDAB102028 containing dgt-1 v5, pDAB102029 containing dgt-1 v6, pDAB102032 containing dgt-1 v7, pDAB102034 containing dgt-1 v8, pDAB100429 containing dgt-3 v6, pDAB100442 containing dgt-3 v7, pDAB100430 containing dgt-3 v8, pDAB102036 containing dgt-7 v5, pDAB102038 containing dgt-7 v6, pDAB102040 containing dgt-7 v7, and pDAB102042 containing dgt-7 v8.
(§4) Recombinant DGT proteins were overexpressed in Rosetta2™ (DE3) cells (Novagen, Madison, Wis.) from the constructs described above. A single colony was used to inoculate 50 mL starter cultures of LB containing chloramphenicol (25 μg/mL) and kanamycin (50 μg/mL) which were cultivated overnight at 37° C. The overnight cultures were used to inoculate 1 L of LB containing chloramphenicol (25 μg/mL) and kanamycin (50 μg/mL). The cultures were grown at 37° C. to an O.D.600=0.6 then placed in an ice water bath for 10 minutes. Expression of the target proteins was achieved by addition of IPTG to a final concentration of 500 μM. Induction was allowed to proceed overnight at 20° C. followed by harvesting via centrifugation at 8,000 rpm for 20 minutes. The cell pellets were stored at −80° C. until required for purification. All purification steps were carried out at 4° C.
(§5) Cell pellets from 1 L cultures were resuspended in 20-30 mL Buffer A (50 mM HEPES pH 7.5, 150 mM KCl, 2 mM DTT, 1 mM EDTA, 20 mM imidazole, and 5% glycerol). COMPLETE™ protease inhibitor cocktail (1 tablet/50 mL, Roche, Indianapolis, Ind.) and lysozyme (1 mg/mL, Sigma-Aldrich, St. Louis, Mo.) were then added and the suspension was stirred for 20 minutes. Cell lysis was performed using a Branson Sonifier 250 (3×60 second bursts) followed by removal of the cell debris by centrifugation at 16,000 rpm for 45 minutes. […]

| Molecule | Km [µM] | kcat/Km [M⁻¹ s⁻¹] |
| --- | --- | --- |
| Glycine max (soybean) EPSP synthase DGT-1 variant DGT-1 v6 (G→A) (Glycine max; G182A) (protein) MASVAAAEKPSTSPEIVLEPIKDFSGTITLPGSKSLSNRILLLAALSEGTTVVDNLLYSEDIHYMLGALRTLGLRVEDDKTTKQAIVEGCGGLFPTSKESKDEINLFLGNAATAMRPLTAAVVAAGGNASYVLDGVPRMRERPIGDLVAGLKQLGADVDCFLGTNCPPVRVNGKGGLPGGKVKLSGSVSSQYLTALLMAAPLALGDVEIEIVDKLISVPYVEMTLKLMERFGVSVEHSGNWDRFLVHGGQKYKSPGNAFVEGDASSASYLLAGAAITGGTITVNGCGTSSLQGDVKFAEVLEKMGAKVTWSENSVTVSGPPRDFSGRKVLRGIDVNMNKMPDVAMTLAVVALFANGPTAIRDVASWRVKETERMIAICTELRKLGATVEEGPDYCVITPPEKLNVTAIDTYDDHRMAMAFSLAACGDVPVTIKDPGCTRKTFPDYFEVLERLTKH | 608.2 | 13400 |
| Glycine max (soybean) EPSP synthase DGT-1 variant DGT-1 v7 (G→A, P→S; GAPS) (Glycine max; G182A/P187S) (protein) MASVAAAEKPSTSPEIVLEPIKDFSGTITLPGSKSLSNRILLLAALSEGTTVVDNLLYSEDIHYMLGALRTLGLRVEDDKTTKQAIVEGCGGLFPTSKESKDEINLFLGNAATAMRSLTAAVVAAGGNASYVLDGVPRMRERPIGDLVAGLKQLGADVDCFLGTNCPPVRVNGKGGLPGGKVKLSGSVSSQYLTALLMAAPLALGDVEIEIVDKLISVPYVEMTLKLMERFGVSVEHSGNWDRFLVHGGQKYKSPGNAFVEGDASSASYLLAGAAITGGTITVNGCGTSSLQGDVKFAEVLEKMGAKVTWSENSVTVSGPPRDFSGRKVLRGIDVNMNKMPDVAMTLAVVALFANGPTAIRDVASWRVKETERMIAICTELRKLGATVEEGPDYCVITPPEKLNVTAIDTYDDHRMAMAFSLAACGDVPVTIKDPGCTRKTFPDYFEVLERLTKH | 1291.2 | 6670 |
| Glycine max (soybean) EPSP synthase DGT-1 variant DGT-1 v8 (T→I, P→S; TIPS) (Glycine max; P187S/T183I) (protein) MASVAAAEKPSTSPEIVLEPIKDFSGTITLPGSKSLSNRILLLAALSEGTTVVDNLLYSEDIHYMLGALRTLGLRVEDDKTTKQAIVEGCGGLFPTSKESKDEINLFLGNAGIAMRSLTAAVVAAGGNASYVLDGVPRMRERPIGDLVAGLKQLGADVDCFLGTNCPPVRVNGKGGLPGGKVKLSGSVSSQYLTALLMAAPLALGDVEIEIVDKLISVPYVEMTLKLMERFGVSVEHSGNWDRFLVHGGQKYKSPGNAFVEGDASSASYLLAGAAITGGTITVNGCGTSSLQGDVKFAEVLEKMGAKVTWSENSVTVSGPPRDFSGRKVLRGIDVNMNKMPDVAMTLAVVALFANGPTAIRDVASWRVKETERMIAICTELRKLGATVEEGPDYCVITPPEKLNVTAIDTYDDHRMAMAFSLAACGDVPVTIKDPGCTRKTFPDYFEVLERLTKH | 151.4 | – |

substrate: C=C(OP(=O)(O)O)C(=O)O; assay: as above; type: biochemical, Brassica napus; details: other: pH 7.5, 1 mM S3P; remark: another data set of the same source
Text: as §1, §2, §3, §4, §5

| Molecule | Km [µM] | kcat/Km [M⁻¹ s⁻¹] |
| --- | --- | --- |
| Brassica napus (canola) EPSP synthase DGT-3 (GENBANK P17688) variant DGT-3 v6 (G→A) (Brassica napus; G173A) (protein, made in house; host or cells: E. coli Rosetta2 (DE3)) KASEIVLQPIREISGLIKLPGSKSLSNRILLLAALSEGTTVVDNLLNSDDINYMLDALKKLGLNVERDSVNNRAVVEGCGGIFPASLDSKSDIELYLGNAATAMRPLTAAVTAAGGNASYVLDGVPRMRERPIGDLVVGLKQLGADVECTLGTNCPPVRVNANGGLPGGKVKLSGSISSQYLTALLMAAPLALGDVEIEIIDKLISVPYVEMTLKLMERFGVSAEHSDSWDRFFVKGGQKYKSPGNAYVEGDASSASYFLAGAAITGETVTVEGCGTTSLQGDVKFAEVLEKMGCKVSWTENSVTVTGPSRDAFGMRHLRAVDVNMNKMPDVAMTLAVVALFADGPTTIRDVASWRVKETERMIAICTELRKLGATVEEGSDYCVITPPAKVKPAEIDTYDDHRMAMAFSLAACADVPVTIKDPGCTRKTFPDYFQVLESITKH | 1073.4 | 13900 |
| Brassica napus (canola) EPSP synthase DGT-3 (GENBANK P17688) variant DGT-3 v7 (G→A, P→S; GAPS) (Brassica napus; G173A/P178S) (protein, made in house; host or cells: E. coli Rosetta2 (DE3)) KASEIVLQPIREISGLIKLPGSKSLSNRILLLAALSEGTTVVDNLLNSDDINYMLDALKKLGLNVERDSVNNRAVVEGCGGIFPASLDSKSDIELYLGNAATAMRSLTAAVTAAGGNASYVLDGVPRMRERPIGDLVVGLKQLGADVECTLGTNCPPVRVNANGGLPGGKVKLSGSISSQYLTALLMAAPLALGDVEIEIIDKLISVPYVEMTLKLMERFGVSAEHSDSWDRFFVKGGQKYKSPGNAYVEGDASSASYFLAGAAITGETVTVEGCGTTSLQGDVKFAEVLEKMGCKVSWTENSVTVTGPSRDAFGMRHLRAVDVNMNKMPDVAMTLAVVALFADGPTTIRDVASWRVKETERMIAICTELRKLGATVEEGSDYCVITPPAKVKPAEIDTYDDHRMAMAFSLAACADVPVTIKDPGCTRKTFPDYFQVLESITKH | 2728.3 | 2280 |
| Brassica napus (canola) EPSP synthase DGT-3 (GENBANK P17688) variant DGT-3 v8 (T→I, P→S; TIPS) (Brassica napus; P178S/T174I) (protein, made in house; host or cells: E. coli Rosetta2 (DE3)) KASEIVLQPIREISGLIKLPGSKSLSNRILLLAALSEGTTVVDNLLNSDDINYMLDALKKLGLNVERDSVNNRAVVEGCGGIFPASLDSKSDIELYLGNAGIAMRSLTAAVTAAGGNASYVLDGVPRMRERPIGDLVVGLKQLGADVECTLGTNCPPVRVNANGGLPGGKVKLSGSISSQYLTALLMAAPLALGDVEIEIIDKLISVPYVEMTLKLMERFGVSAEHSDSWDRFFVKGGQKYKSPGNAYVEGDASSASYFLAGAAITGETVTVEGCGTTSLQGDVKFAEVLEKMGCKVSWTENSVTVTGPSRDAFGMRHLRAVDVNMNKMPDVAMTLAVVALFADGPTTIRDVASWRVKETERMIAICTELRKLGATVEEGSDYCVITPPAKVKPAEIDTYDDHRMAMAFSLAACADVPVTIKDPGCTRKTFPDYFQVLESITKH | 196.8 | – |
